Source: patent publication US20260317448 (published 2026)

What was measured:
[1] = molecular target: T1, tissue-nonspecific alkaline phosphatase (human, UniProt P05186); assay: other, western blot
T1 chain: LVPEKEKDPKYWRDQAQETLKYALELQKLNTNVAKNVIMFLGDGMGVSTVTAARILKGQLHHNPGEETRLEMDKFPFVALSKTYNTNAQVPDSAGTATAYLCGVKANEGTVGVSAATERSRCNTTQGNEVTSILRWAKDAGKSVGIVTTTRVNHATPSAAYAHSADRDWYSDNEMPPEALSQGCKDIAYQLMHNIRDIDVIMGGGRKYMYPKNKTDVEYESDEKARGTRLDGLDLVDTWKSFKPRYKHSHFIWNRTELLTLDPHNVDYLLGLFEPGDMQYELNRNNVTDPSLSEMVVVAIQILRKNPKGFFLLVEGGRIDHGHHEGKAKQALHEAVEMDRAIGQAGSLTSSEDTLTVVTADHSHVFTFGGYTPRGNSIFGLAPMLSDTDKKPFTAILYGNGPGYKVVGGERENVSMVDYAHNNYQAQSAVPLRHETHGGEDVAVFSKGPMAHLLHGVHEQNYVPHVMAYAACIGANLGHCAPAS

2-hsALPI peptide = molecular target: T2, 2-hsALPI peptide (human, intestinal alkaline phosphatase aa234-250); assay: ELISA
T2 chain: PEYPADASQNGIRLDGK

[2] = molecular target: T3, germ cell alkaline phosphatase (human, UniProt P10696); assay: other, western blot
T3 chain: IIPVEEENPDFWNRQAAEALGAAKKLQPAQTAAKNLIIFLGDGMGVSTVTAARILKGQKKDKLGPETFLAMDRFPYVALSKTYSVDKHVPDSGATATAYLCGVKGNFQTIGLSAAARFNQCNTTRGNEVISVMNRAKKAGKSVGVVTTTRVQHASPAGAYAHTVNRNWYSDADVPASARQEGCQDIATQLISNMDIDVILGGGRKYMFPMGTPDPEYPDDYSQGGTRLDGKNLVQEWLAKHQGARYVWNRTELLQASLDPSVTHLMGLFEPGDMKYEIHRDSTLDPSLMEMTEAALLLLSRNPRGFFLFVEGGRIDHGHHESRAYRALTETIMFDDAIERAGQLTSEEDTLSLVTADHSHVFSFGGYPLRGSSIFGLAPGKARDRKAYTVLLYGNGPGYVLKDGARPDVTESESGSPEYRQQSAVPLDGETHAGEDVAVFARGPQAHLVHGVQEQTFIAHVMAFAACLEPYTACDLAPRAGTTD

[3] = molecular target: T4, placental alkaline phosphatase (human, UniProt P05187); assay: other, western blot
T4 chain: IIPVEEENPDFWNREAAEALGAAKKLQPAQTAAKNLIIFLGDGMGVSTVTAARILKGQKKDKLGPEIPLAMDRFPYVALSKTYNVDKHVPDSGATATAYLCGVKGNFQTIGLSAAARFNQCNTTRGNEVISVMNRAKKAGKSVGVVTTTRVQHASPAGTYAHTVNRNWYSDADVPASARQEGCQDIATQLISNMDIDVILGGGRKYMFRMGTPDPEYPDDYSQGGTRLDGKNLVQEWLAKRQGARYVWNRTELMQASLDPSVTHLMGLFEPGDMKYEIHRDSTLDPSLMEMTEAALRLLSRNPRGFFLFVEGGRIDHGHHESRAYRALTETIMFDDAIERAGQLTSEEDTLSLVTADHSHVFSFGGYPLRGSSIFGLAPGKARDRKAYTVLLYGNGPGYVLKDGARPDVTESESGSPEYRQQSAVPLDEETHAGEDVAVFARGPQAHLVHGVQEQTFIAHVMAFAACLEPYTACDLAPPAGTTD

6-hsALPI peptide = molecular target: T5, 6-hsALPI peptide (human, intestinal alkaline phosphatase aa416-438); assay: ELISA
T5 chain: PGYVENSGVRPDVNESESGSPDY

Binder	binding result [1]	Kd (2-hsALPI peptide) [nM]	binding result [2]	binding result [3]	Kd (6-hsALPI peptide) [nM]
CDI005E8 (antibody, V domains shown) VH: CQSLEESGGGLVQPGASLTLTCTASGFSFTNNYWIYWVRQAPGKGLEWIGSVIISSSSAYYASWAKGRFTITKPSSTTVTLQVTSLTAADTATYFCVTGGILWGPGTLVTVSS VL: MDTRAPTQLLGLLLLWLPGARCDVVMTQTPASVEAAVGGTVTIKCQASQSIGTALAWYQQKPGQPPKRLIYKASTLTSGVPSRFKGSGSGTDFTLTISDLECADAATYYCQCTVDDSSSGSSYGNAFGGGTEVVVRG	no binding	0.00711	no binding	no binding	
CDI022E3 (antibody, V domains shown) VH: CQSLEESGGRLVTPGTPLTLTCTVSGIDLSTYAMGWVRQAPGEGLEWIGTIGVSGSTYYASWAKGRFTISKTSTTVDLKMTSPATEDTATYFCARGSVWGPGTLVTVSL VL: AQVLTQTPASVEAAVGGTVTIKCQASQSISTWLAWYQQKPGQAPKRLIYSASTLASGVSSRFKGSGSGTEFTLTISDLECADAATYYCRCSYGKSYGEAFGGGTEVVVKG		0.021			0.2
